Measured values published in US20140178333A1.

Biological target: IL-28 receptor (IL-28 receptor alpha subunit with endogenous CRF2-4) on transfected 293 HEK cells (human)
Assay: cell-based or functional assay

Chain of IL-28 receptor (IL-28 receptor alpha subunit with endogenous CRF2-4) on transfected 293 HEK cells (human) (Q8IU57 21-520): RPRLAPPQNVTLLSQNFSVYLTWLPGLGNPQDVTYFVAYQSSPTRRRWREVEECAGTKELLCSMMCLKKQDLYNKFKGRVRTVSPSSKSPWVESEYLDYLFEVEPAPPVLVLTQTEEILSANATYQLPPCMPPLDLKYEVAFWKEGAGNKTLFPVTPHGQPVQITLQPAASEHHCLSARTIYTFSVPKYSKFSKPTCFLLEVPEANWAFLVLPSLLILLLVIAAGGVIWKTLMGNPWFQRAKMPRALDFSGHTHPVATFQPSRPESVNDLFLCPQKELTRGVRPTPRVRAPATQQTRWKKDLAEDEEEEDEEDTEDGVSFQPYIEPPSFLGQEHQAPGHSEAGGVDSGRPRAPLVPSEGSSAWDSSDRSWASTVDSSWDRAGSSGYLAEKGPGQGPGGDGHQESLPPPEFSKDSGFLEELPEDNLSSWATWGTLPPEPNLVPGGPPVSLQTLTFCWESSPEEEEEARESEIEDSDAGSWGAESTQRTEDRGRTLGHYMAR

Row | Substance | ISRE-luciferase fold induction over medium alone, 293 HEK cells transfected with ISRE-Luc. and IL-28R; ligand 125 ng/ml (fold induction) | ISRE-luciferase fold induction over medium alone, 293 HEK cells transfected with ISRE-Luc. and IL-28R; ligand 100 ng/ml (fold induction)
1 | IL-28B (SEQ ID NO:6) (from UniProt Q8IZI9 22-196) (ligand) | 104 | 
2 | HuIL10 (from UniProt P22301 19-178) (ligand) |  | 0.5
3 | Zcyto10 (from UniProt Q9NYY1 25-176) (ligand) | 1 | 
